Results: US12043671B2, “Antibodies targeting an amphiregulin-derived cell surface neo-epitope” (Gundersen Lutheran Medical Foundation, Inc., priority 2021, dated 2024)

Test system: MCF7 xenografts
Test: Orthotopic MCF7 breast cancer xenograft in NSG mice
Assay type: in vivo, mouse
Description: In Vivo Antitumor Activity Studies: The animal experiments were approved by the Institutional Animal Care and Use Committee of University of Wisconsin La Crosse (La Crosse, Wisconsin, USA). Four-week-old female NOD.Cg-Prkdc^scid II2rg^tm1Wjl/SzJ mice (NSG; The Jackson Laboratory) were acclimated for 1 week before the experiments. For MCF7 breast cancer xenograft model, the mice were implanted subcutaneously with 0.72-mg 17β-estradiol 90-day release tablets (Innovative Research of America) 3 days prior to cell injection. […] Firefly luciferase expressing MCF7 and MCF7-F cells (2×10^6 cells in a 1:1 mixture of serum-free DMEM and Matrigel) were injected orthotopically into the fourth inguinal mammary fat pad of each mouse. Once the tumors were well established, each cell line cohort was divided into three groups (n=5). Mean tumor volume at the start of treatment was 111 mm^3 for the MCF7 cohorts and 119 mm^3 for the MCF7-F cohorts. The mice were treated by intraperitoneal injection every 4 days for a total of six doses with unconjugated or MMAE conjugated anti-cleaved-AREG 1A3 antibody (5 mg/kg), or vehicle control (PBS). Tumor volumes were calculated from caliper data by using the formula: Volume (mm^3)=(Length×Width^2)/2. Mice were imaged weekly with the in vivo FX PRO imaging system (Carestream Molecular Imaging, Woodbridge, CA, USA) after injecting luciferin (150 mg/kg body weight). Tumor volume and body weight were monitored once a week. Statistical Analysis:
To test in vivo efficacy of 1A3-MMAE, human breast cancer cell lines expressing luciferase were injected orthotopically into NSG mice (one tumor in each inguinal mammary gland). Once the average tumor size reached approximately 100-125 mm^3, mice were randomized to one of three treatment groups: PBS, 1A3 (5 mg/kg) or 1A3-MMAE (5 mg/kg). Mice received intraperitoneal injections every 4 days for six total injections and were monitored for tumor progression or regression. Similar experiments were performed with MCF7 (FIGS. 5A, 5B, and 5C, left panels) and MCF7-F (FIGS. 5A, 5B, and 5C, right panels) xenografts.

B1: 1A3: Rabbit monoclonal IgG specific to cleaved AREG; VH SEQ ID NO: 3, VL SEQ ID NO: 4 (antibody, V domains shown)
VH: QSVKESEGRLVTPGTPLRLTCTVAGYSLSRYHMCWVRQAPGKGLEWIGMIGGSGRTDYASWAKGRFTISKTSTTVDLKITSPTTEDTATYFCSTVYTDSDGDFWGPGTLVTVSS
VL: AELDMTQTPSSKSVPVGGTVTINCQASESVYSNDRLAWFQQKPGQPPKLLIYYASTLASGVPSRFKGSGSGTQFTLTISDLECADAATYYCQSCYDMSSYGVAFGGGTELEIL
modifications: 1A3 antibody, Heavy chain; 1A3 antibody, Light chain
MCF7, 5 mg/kg
  longitudinal luciferase imaging of xenografts: exhibited tumor growth
MCF7, 5 mg/kg i.p. every 4 days, six doses
  tumor volume response by caliper measurements: continued, sometimes rapid increases in tumor volume
